In patent publication US20230357343A1 one finds Binding to KLH (normalised A450) data, which are given here for one substance.

Where two headings read alike, the source gives them in different places.

Assay [1] has as its target keyhole limpet hemocyanin. Kind of assay: polyreactivity ELISA. A general note: An ELISA detects its analyte on a solid surface through an enzyme-linked reagent.
The target of assay [2] is keyhole limpet hemocyanin. Description: polyreactivity ELISA. This is another data set of the same source.

With Bococizumab (antibody), the values for the Binding to KLH (normalised A450) in assay [1] and in assay [2] were 24.4 and 47.1, respectively.
